This test addresses plasma proteins (rat (endogenous in serum)). The test is described as follows: SEC.

Where only a bound is given, the exact number is not on record here.

As to “L56A mutant of sTEM8 (from UniProt Q9H6X2 38-220) (domain or fragment)”, the percent plasma protein binding was over 90%.

In turn, “soluble vWA domain of tumor endothelium marker-8 (sTEM8) (from UniProt Q9H6X2 38-220) (domain or fragment)” gave a percent plasma protein binding of over 90%.

The values are drawn from PMC3107238.
